Source: patent publication US20070185028A1, “Compositions and methods for treatment of protein misfolding and protein aggregation diseases” (priority 2004, published 2007)

Experiments:
beta amyloid = beta amyloid (UniProt P05067); experiment: cell-based or functional assay
[1] = target: Human γD crystallin (human) (UniProt P07320); experiment: cell-based or functional assay
Human γD crystallin (human), sequence (P07320 2-174 limits assumed): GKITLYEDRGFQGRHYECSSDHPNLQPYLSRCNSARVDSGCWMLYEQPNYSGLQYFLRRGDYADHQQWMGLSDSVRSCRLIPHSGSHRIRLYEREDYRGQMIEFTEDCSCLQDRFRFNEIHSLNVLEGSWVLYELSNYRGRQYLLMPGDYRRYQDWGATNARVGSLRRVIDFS

Δfluorescence (Aβ), Thioflavin T, 72 h at 50° C (no chaperone: 1,324,974,048) (beta amyloid): 3.18e+08 | Δfluorescence (γD crystallin), Thioflavin T, 72 h at 50° C (no chaperone: 888,803,840) [1]: 1.08e+09
Substance: human αB crystallin (from UniProt P02511 1-175)
